Earlier results as cited in publication PMC4815360.
pKd: −log10 of the molar value.

Legend:
[1] = molecular target: Endothelin receptor ETA (Homo sapiens) (UniProt P25101); assay: saturation radioligand binding
[2] = molecular target: Endothelin receptor ETA (Rattus norvegicus) (UniProt P26684); assay: radioligand binding
[3] = molecular target: Endothelin receptor ETA (Rattus norvegicus) (UniProt P26684); assay: radioligand
[4] = molecular target: Endothelin receptor ETA (Homo sapiens) (UniProt P25101); assay: radioligand

Sequence of UniProt P25101 (P25101 21-427): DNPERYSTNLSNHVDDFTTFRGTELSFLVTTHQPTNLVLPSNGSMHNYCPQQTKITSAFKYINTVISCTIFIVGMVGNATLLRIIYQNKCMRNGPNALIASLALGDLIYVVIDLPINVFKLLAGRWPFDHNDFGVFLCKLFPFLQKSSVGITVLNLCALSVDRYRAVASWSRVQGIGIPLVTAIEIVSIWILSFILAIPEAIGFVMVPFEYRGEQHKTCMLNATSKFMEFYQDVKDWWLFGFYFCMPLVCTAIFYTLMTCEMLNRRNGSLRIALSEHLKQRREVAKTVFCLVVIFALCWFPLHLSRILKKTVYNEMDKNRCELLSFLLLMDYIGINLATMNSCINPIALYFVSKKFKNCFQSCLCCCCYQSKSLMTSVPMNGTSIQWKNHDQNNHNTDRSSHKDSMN
Sequence of UniProt P26684 (P26684 21-426): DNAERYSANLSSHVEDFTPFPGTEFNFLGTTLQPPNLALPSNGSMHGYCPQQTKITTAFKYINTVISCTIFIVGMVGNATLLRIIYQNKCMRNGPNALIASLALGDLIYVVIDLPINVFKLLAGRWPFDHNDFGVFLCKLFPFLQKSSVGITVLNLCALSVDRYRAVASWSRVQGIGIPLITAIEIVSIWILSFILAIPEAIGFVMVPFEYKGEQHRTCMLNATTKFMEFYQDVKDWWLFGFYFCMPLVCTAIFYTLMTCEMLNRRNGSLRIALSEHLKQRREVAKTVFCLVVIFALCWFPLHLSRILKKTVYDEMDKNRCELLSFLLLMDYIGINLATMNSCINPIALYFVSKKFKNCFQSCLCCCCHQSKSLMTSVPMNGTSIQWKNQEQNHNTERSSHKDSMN

pKd [1]	pKd [2]	pKd [3]	pKd [4]	Substance
9.15	10.00			Endothelin-2 (from UniProt P20800)
		10.00	9.40	Endothelin-1 (from UniProt P05305)
